Laboratory results published in paper PMC9723800, “Structural and dynamic basis of DNA capture and translocation by mitochondrial Twinkle helicase” (Nucleic Acids Research, 2022).
“And” between values parts separate entries of the source, which are not always exact repeats. Equal entries are not always repeated. One block for each molecule: values may come before it.

Legend:
[1] = biological target: E325Q LcTwinkle (Lates calcarifer Twinkle helicase, active site mutant) (Lates calcarifer); experiment: cryo-EM structure; apo (DNA-free) classes found by 3D classification in the same sample prepared with ssDNA and ATP: LcTwinkle6 and LcTwinkle7 (8.5 A)
[2] = biological target: E325Q LcTwinkle (Lates calcarifer Twinkle helicase, active site mutant) (Lates calcarifer); experiment: cryo-EM structure; E325Q LcTwinkle with ssDNA (1:1.5), 1 mM ATP, 2 mM MgCl2, 50 mM Tris pH 8.0, 150 mM KCl, 3 mM DTT; DNA-bound classes (LcTwinkle-DNA 3.5 A, LcTwinkle-DNA2 7.5 A)
[3] = biological target: WT LcTwinkle (Lates calcarifer Twinkle helicase) (Lates calcarifer); experiment: negative staining EM; 0.02 mg/ml Twinkle in 50 mM Tris pH 8.0, 150 mM KCl, 3 mM DTT, 1 mM ATP, 2 mM MgCl2, ssDNA at 1:2 relative to hexamers; uranyl acetate; 2D classification
LcTwinkle [4] = biological target: T1, LcTwinkle (Lates calcarifer, UniProt A0A4W6C5C5, E452Q); experiment: cryo-EM structure of LcTwinkle-ssDNA-ATP complex, […] Å; format: binding; details: 1 mM ATP, 2 mM MgCl2, pH 8.0, five ATP at the subunit interfaces, one Mg2+ each
T1 construct: gene TWNK; shorter variant (primase-like NTD + helicase CTD), synthesized gene, modified pET28a, N-terminal His tag cut by PreScission; E. coli BL21(DE3); homo-hexamer (also heptamer)
T1 sequence (A0A4W6C5C5 128-683 E452Q): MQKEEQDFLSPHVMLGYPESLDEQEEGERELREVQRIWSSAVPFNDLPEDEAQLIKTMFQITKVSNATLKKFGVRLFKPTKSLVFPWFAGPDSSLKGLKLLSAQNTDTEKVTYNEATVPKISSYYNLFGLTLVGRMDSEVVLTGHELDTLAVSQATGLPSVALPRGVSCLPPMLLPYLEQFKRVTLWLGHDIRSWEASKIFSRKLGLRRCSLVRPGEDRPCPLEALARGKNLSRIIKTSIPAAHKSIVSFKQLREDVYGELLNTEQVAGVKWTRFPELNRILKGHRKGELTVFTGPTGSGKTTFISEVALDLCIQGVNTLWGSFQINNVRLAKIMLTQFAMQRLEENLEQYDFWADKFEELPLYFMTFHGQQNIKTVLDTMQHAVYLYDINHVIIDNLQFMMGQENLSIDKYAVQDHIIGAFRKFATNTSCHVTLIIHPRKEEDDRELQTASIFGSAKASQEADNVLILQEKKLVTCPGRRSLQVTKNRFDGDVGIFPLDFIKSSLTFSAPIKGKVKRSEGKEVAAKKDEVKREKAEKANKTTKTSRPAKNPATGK

LcTwinkle [5] = biological target: T2, LcTwinkle (Lates calcarifer, UniProt A0A4W6C5C5); experiment: [gamma-32P]ATP TLC ATPase assay, Michaelis-Menten fit; format: biochemical; details: 12 mM MgCl2, 1 uM ssDNA, 150 mM KCl, pH 8.0, 20 °C; labelled compound as tracer
T2 construct: gene TWNK; shorter variant (primase-like NTD + helicase CTD), synthesized gene, modified pET28a, N-terminal His tag cut by PreScission; E. coli BL21(DE3); homo-hexamer (also heptamer)
T2 sequence (A0A4W6C5C5 128-683): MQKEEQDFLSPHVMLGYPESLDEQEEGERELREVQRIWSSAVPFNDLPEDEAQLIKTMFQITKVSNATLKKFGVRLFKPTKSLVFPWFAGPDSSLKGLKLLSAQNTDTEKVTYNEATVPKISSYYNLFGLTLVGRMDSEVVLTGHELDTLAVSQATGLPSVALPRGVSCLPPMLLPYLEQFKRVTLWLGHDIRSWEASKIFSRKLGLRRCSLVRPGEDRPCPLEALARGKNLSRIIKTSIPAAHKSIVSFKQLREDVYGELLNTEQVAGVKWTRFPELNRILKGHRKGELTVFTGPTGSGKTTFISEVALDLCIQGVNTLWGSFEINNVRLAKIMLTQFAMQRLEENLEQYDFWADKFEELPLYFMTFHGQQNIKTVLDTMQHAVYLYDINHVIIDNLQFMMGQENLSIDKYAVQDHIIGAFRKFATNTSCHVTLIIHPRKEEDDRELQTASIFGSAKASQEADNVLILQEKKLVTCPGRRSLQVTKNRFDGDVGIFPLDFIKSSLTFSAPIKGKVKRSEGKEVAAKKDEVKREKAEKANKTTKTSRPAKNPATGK

LcTwinkle E325Q = biological target: T3, LcTwinkle E325Q (Lates calcarifer, UniProt A0A4W6C5C5 128-683, E452Q); experiment: cryo-EM structure (3.5 A); 1 mM ATP, 2 mM Mg2+; FA: 25 mM Tris-HCl pH 8.0, 150 mM KCl, 0.5 mM ATP, 1 mM MgCl2, 20 nM Cy5-ssDNA, temperature not stated; SEC/cryo-EM: 50 mM Tris pH 8.0, 150 mM KCl, 3 mM DTT, 1; details: protein: recombinant; tags: N-terminal His tag, PreScission-cleaved; chain copies: 6; single strand
T3 sequence: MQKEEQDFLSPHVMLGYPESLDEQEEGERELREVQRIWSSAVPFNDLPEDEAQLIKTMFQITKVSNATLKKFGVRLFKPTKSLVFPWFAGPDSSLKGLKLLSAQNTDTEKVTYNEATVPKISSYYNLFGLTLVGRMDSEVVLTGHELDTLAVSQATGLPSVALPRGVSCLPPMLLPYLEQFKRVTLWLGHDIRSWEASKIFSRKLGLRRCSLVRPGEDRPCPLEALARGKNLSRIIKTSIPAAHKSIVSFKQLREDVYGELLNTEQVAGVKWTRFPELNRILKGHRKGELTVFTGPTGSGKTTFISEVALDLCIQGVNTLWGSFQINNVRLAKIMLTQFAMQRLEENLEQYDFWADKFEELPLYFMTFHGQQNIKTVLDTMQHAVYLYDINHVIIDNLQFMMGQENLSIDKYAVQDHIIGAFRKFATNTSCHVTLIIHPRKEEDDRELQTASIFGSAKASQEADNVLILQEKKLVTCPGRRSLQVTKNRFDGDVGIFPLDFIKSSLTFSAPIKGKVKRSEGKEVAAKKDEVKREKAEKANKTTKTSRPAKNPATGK

LcTwinkle R489A = biological target: T4, LcTwinkle R489A (Lates calcarifer, UniProt A0A4W6C5C5 128-683, R616A); experiment: fluorescence anisotropy; 0.5 mM ATP, 1 mM Mg2+; FA: 25 mM Tris-HCl pH 8.0, 150 mM KCl, 0.5 mM ATP, 1 mM MgCl2, 20 nM Cy5-ssDNA, temperature not stated; SEC/cryo-EM: 50 mM Tris pH 8.0, 150 mM KCl, 3 mM DTT, 1; details: protein: recombinant; tags: N-terminal His tag, PreScission-cleaved; chain copies: 6; label: 5'-Cy5; single strand
T4 sequence: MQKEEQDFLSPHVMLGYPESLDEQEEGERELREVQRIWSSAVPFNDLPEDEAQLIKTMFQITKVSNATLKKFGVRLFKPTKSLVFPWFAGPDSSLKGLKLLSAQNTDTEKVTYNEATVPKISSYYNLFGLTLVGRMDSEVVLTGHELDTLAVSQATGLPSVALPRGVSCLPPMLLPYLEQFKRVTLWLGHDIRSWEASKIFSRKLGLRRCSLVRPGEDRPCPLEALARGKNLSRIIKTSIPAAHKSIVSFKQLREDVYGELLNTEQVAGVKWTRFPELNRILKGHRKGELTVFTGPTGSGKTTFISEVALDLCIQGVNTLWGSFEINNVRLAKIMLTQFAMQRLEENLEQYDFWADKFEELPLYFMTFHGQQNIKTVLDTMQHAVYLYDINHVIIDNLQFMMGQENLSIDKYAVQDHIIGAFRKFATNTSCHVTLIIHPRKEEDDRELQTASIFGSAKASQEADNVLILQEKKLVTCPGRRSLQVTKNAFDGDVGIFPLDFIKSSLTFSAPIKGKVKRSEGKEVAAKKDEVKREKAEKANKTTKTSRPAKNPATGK

LcTwinkle R440A = biological target: T5, LcTwinkle R440A (Lates calcarifer, UniProt A0A4W6C5C5 128-683, R567A); experiment: as above; details: protein: recombinant; tags: N-terminal His tag, PreScission-cleaved; chain copies: 6; label: 5'-Cy5; single strand
T5 sequence: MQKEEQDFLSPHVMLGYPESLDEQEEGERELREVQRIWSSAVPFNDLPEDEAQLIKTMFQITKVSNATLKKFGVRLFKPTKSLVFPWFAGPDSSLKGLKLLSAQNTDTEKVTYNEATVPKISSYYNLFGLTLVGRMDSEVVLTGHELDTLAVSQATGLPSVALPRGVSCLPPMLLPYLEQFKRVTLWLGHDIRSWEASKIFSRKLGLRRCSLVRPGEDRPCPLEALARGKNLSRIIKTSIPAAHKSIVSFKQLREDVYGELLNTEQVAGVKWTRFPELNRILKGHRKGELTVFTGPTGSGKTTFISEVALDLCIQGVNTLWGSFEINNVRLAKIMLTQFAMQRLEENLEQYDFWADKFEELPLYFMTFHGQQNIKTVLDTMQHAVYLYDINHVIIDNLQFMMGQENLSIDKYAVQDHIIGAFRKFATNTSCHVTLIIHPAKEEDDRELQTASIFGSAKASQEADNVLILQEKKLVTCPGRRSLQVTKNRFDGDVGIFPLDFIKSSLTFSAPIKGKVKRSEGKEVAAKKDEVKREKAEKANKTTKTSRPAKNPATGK

LcTwinkle S456A = biological target: T6, LcTwinkle S456A (Lates calcarifer, UniProt A0A4W6C5C5 128-683, S583A); experiment: as above; details: protein: recombinant; tags: N-terminal His tag, PreScission-cleaved; chain copies: 6; label: 5'-Cy5; single strand
T6 sequence: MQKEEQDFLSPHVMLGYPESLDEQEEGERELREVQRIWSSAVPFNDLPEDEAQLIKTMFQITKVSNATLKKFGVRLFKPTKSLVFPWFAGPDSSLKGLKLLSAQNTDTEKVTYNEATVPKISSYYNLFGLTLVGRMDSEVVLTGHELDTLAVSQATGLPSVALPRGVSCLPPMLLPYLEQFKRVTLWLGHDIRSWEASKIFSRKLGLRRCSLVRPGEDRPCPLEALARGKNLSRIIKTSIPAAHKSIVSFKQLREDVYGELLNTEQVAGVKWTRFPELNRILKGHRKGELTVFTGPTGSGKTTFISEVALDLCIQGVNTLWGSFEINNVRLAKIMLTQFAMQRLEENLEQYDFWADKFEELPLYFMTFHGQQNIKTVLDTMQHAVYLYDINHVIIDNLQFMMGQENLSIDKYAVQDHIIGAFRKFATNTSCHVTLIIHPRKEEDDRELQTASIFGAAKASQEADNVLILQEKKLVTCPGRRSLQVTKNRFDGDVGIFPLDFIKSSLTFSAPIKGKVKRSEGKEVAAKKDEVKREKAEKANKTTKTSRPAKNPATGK

LcTwinkle H438A = biological target: T7, LcTwinkle H438A (Lates calcarifer, UniProt A0A4W6C5C5 128-683, H565A); experiment: as above; details: protein: recombinant; tags: N-terminal His tag, PreScission-cleaved; chain copies: 6; label: 5'-Cy5; single strand
T7 sequence: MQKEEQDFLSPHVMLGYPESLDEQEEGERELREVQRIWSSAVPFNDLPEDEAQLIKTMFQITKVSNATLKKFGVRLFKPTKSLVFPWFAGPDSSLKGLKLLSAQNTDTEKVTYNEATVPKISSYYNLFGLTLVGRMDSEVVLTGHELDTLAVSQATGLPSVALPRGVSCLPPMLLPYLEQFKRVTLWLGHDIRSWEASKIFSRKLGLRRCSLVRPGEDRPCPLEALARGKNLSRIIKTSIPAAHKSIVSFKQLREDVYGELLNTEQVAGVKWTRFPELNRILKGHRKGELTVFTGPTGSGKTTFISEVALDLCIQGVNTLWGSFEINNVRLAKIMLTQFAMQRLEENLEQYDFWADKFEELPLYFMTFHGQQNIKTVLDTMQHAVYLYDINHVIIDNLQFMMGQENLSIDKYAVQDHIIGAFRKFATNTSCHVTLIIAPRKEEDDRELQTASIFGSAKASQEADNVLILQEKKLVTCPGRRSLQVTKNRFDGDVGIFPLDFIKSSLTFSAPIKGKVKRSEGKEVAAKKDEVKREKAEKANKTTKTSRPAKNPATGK

stoichiometry N [1]: 6 and 7
stoichiometry N [2]: 6
Molecule: E325Q LcTwinkle (Lates calcarifer Twinkle helicase, active site mutant) (enzyme)

stoichiometry N [3]: 6 and 7
Molecule: WT LcTwinkle (Lates calcarifer Twinkle helicase) (enzyme)

Molecule: Nc1ncnc2c1ncn2[C@@H]1O[C@H](COP(=O)(O)OP(=O)(O)OP(=O)(O)O)[C@@H](O)[C@H]1O [ATP]
cryo-EM structure of LcTwinkle-ssDNA-ATP complex, 3.5 Å (LcTwinkle [4]): ATPase sites are located at each of the subunit interfaces (Figure 2A), and five ATP molecules
KM (LcTwinkle [5]): The data were fitted to Michaelis–Menten equation with GraphPad

B1: TGGTC-oligo(dT) ssDNA (ssDNA)
DNA: TGGTCTTTTTTTTTTTTTTTTTTTTTTTTT
binding result (LcTwinkle E325Q): binds

B2: Cy5-ssDNA (ssDNA)
DNA: GGATTATTTACATTGGCAGATTCACC
binding result (LcTwinkle R489A): no binding
binding result (LcTwinkle R440A): no binding
binding result (LcTwinkle S456A): no binding
binding result (LcTwinkle H438A): no binding
